For one data set, the system named is Roquin-1 N-term (mouse). The data set is described as follows: EMSA. Particulars: first binding event; EMSA: 150 mM NaCl, 20 mM Tris pH 7.0, 2 mM TCEP, 1 mM MgCl2, 0.6 ug yeast tRNAPhe per 20 ul, 15 min; temperature not stated; gel in 1x TB.
Data set [1] has as its target T1, Roquin-1 extROQ (mouse, UniProt Q4VGL6 89-404).
T1 sequence: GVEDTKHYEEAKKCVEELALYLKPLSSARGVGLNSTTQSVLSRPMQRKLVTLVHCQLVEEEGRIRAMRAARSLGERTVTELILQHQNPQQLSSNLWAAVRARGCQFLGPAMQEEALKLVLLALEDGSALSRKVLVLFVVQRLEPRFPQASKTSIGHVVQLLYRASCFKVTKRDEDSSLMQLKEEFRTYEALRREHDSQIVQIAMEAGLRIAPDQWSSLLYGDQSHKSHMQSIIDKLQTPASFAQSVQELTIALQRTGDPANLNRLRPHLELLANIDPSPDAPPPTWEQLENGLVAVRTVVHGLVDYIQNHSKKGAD
As to the kind of experiment: EMSA. Particulars: EMSA: 150 mM NaCl, 20 mM Tris pH 7.0, 2 mM TCEP, 1 mM MgCl2, 0.6 ug yeast tRNAPhe per 20 ul, 15 min, temperature not stated, gel in 1x TB.

Data set [2] concerns the target T2, Roquin-1 coreROQ (mouse, UniProt Q4VGL6 171-326).
T2 sequence: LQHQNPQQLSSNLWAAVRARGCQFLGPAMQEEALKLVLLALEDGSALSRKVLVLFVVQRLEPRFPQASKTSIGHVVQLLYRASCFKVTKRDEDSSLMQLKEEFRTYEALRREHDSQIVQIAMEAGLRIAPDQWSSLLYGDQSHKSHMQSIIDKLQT
The data set is described as follows: EMSA. The conditions noted are these: EMSA: 150 mM NaCl, 20 mM Tris pH 7.0, 2 mM TCEP, 1 mM MgCl2, 0.6 ug yeast tRNAPhe per 20 ul, 15 min, temperature not stated, gel in 1x TB.

Data set [3] deals with Roquin-1 N-term A-site mutant (Amut) (mouse). As to the kind of experiment: EMSA. Particulars: EMSA: 150 mM NaCl, 20 mM Tris pH 7.0, 2 mM TCEP, 1 mM MgCl2, 0.6 ug yeast tRNAPhe per 20 ul, 15 min; temperature not stated; gel in 1x TB.
Data set [4] addresses T1, Roquin-1 extROQ. The data set is described as follows: EMSA; two-step, comparable to WT ADE-CDE; EMSA: 150 mM NaCl, 20 mM Tris pH 7.0, 2 mM TCEP, 1 mM MgCl2, 0.6 ug yeast tRNAPhe per 20 ul, 15 min; temperature not stated; gel in 1x TB. The conditions noted are these: protein: recombinant; tags: tag removed by TEV; label: 5' 32P; two hairpins.
For data set [5], the target named is T1, Roquin-1 extROQ. The data set is described as follows: EMSA; 2:1 stoichiometry; EMSA: 150 mM NaCl, 20 mM Tris pH 7.0, 2 mM TCEP, 1 mM MgCl2, 0.6 ug yeast tRNAPhe per 20 ul, 15 min; temperature not stated; gel in 1x TB. Particulars: protein: recombinant; tags: tag removed by TEV; label: 5' 32P (EMSA).
Data set [6] concerns the target T1, Roquin-1 extROQ. The data set is described as follows: EMSA; single binding event; EMSA: 150 mM NaCl, 20 mM Tris pH 7.0, 2 mM TCEP, 1 mM MgCl2, 0.6 ug yeast tRNAPhe per 20 ul, 15 min; temperature not stated; gel in 1x TB. The conditions noted are these: protein: recombinant, tags: tag removed by TEV, label: 5' 32P.
Data set [7] deals with T1, Roquin-1 extROQ. The data set is described as follows: EMSA; triplicate; EMSA: 150 mM NaCl, 20 mM Tris pH 7.0, 2 mM TCEP, 1 mM MgCl2, 0.6 ug yeast tRNAPhe per 20 ul, 15 min; temperature not stated; gel in 1x TB. The conditions noted are these: protein: recombinant; tags: tag removed by TEV; label: 5' 32P (EMSA); hairpin, apical hexaloop.
Data set [8] concerns the target T2, Roquin-1 coreROQ. The description is as above. The conditions noted are these: protein: recombinant; tags: tag removed by TEV; label: 5' 32P (EMSA); hairpin, apical hexaloop.
Data set [9] concerns the molecule itself. As to the kind of experiment: SAXS; protein alone, concentration series 50, 100, 200, 300 uM; 150 mM NaCl, 20 mM Tris pH 7.0, 2 mM TCEP; 293 K; molecular weight by the Bayesian approach; monomer to dimer.

Take Ox40 tandem ADE-CDE: the dissociation constant Kd is 78 nM with Roquin-1 N-term (mouse); 59 nM in the data set with Roquin-1 extROQ [1] (first binding event); 180 nM with Roquin-1 extROQ [1] (second binding event); 379 nM with Roquin-1 coreROQ [2] (transitions not resolved); 593 nM in data set [3].

As to Ox40 CDE, the equilibrium dissociation constant (Kd) with Roquin-1 extROQ [1] (triplicate) turned out to be 149 nM; in the data set with Roquin-1 coreROQ [2] (triplicate) it was 460 nM.

B1: ADE-u-CDE (structured_RNA)
RNA: GCCUGCCAGUACCCUCCACACCGUUCUAGGUGCUGGGCUGGCUCUGGGCUGUAUGCUAUGCAUACUAC
Turning to B1, the binding result in the data set with Roquin-1 extROQ [4] was “binds”.

B2: Ox40 full-length 3'UTR (structured_RNA)
RNA: GCAUUACUACAGGAGUGGAUUUUAUGGGGCACGGACAACCCAUAUCCUGAUGCCUGCCAGUACCCUCCACACCGUUCUAGGUGCUGGGCUGGCUCUGGGCUUUCCUAUGUAUGCUAUGCAUACUACCUGCCUGGUGGUGCUCCUAAUAAACAUGCUA
With B2, in the data set with Roquin-1 extROQ [5], the Kd was 63 ± 9 nM.

B3: Bulge-CDE (structured_RNA)
RNA: GGAUUUUAUGGGGCACGGACAACCCAUAUCCUGAUUUUCCUAUGUAUGCUAUGCAUACUAC
On to B3, for which, in the data set with Roquin-1 extROQ [6], the Kd is around 70.7 nM.

With GCCUGCCAGUACCCUCCACACCGUUCUAGGUGCUGGGCUGGCUCUGGGC (structured_RNA) [Ox40 ADE], the Kd is 171 ± 17 nM with Roquin-1 extROQ [7] and 232 ± 29 nM with Roquin-1 coreROQ [8].

Consider GUAUUUAUGAUUUCCUAUGUAUGCUAUGCAUACUAC (structured_RNA) [extCDE], for which, in the data set with Roquin-1 extROQ [6] (5' single strand plus hairpin), the Kd was around 50 nM.

B4: Roquin-1 amino-terminal part (N-term, residues 1-454) (domain or fragment, murine, UniProt Q4VGL6 1-454, looked up)
chain: MPVQAPQWTDFLSCPICTQTFDETIRKPISLGCGHTVCKMCLNKLHRKACPFDQTTINTDIELLPVNSALLQLVGAQIPEQQPITLCSGVEDTKHYEEAKKCVEELALYLKPLSSARGVGLNSTTQSVLSRPMQRKLVTLVHCQLVEEEGRIRAMRAARSLGERTVTELILQHQNPQQLSSNLWAAVRARGCQFLGPAMQEEALKLVLLALEDGSALSRKVLVLFVVQRLEPRFPQASKTSIGHVVQLLYRASCFKVTKRDEDSSLMQLKEEFRTYEALRREHDSQIVQIAMEAGLRIAPDQWSSLLYGDQSHKSHMQSIIDKLQTPASFAQSVQELTIALQRTGDPANLNRLRPHLELLANIDPSPDAPPPTWEQLENGLVAVRTVVHGLVDYIQNHSKKGADQQQPPQHSKYKTYMCRDMKQRGGCPRGASCTFAHSQEELEKFRKMNKRLV
notes: Roquin-1, murine, structured amino-terminal part with RING, ROQ and ZnF domains, residues 1-454 (theoretical MW 51.09 kDa); also called Roquin N-term; WT N-term; source: E. coli BL21 (DE3), expressed with 100 uM ZnCl2, purified (Ni-NTA, TEV cleavage, reverse Ni-NTA, SEC)
Consider B4, for which the binding result in data set [9] was “binds”.
